Experimental data published in patent US20060057619A1.

Molecular target: canine Met (canine) (UniProt Q75ZY9)
Experiment: cell-based or functional assay

recombinant human HGF (from UniProt P14210 32-728) (ligand)
phosphorylation of canine Met in OSA cell lines: 50 ng/mL
